According to CN116836268A:
Residue numbers refer to the chain shown, from its start.

B1: S4B3VH-h2+L1C9VK-mIgG2a (antibody, V domains shown)
VH: QVQLVQSGAEVKKPGSSVKVSCKASGYIFNSYSIHWVRQAPGQGLEWIGAIYPGNGDTSNSQRFKGKATITADKSASTAYMELSSLRSEDTAVYYCARDGYDDSYGLDYWGQGTTVTVSS
VL: DIQLTQSPSTLSASVGDRVTITCRASQNIGGWLAWYQQKPGKAPNLLIYQASTLESGVPSRFSGSGSGTEFTLTISSLQAEDFATYHCQQYSGFPWTFGQGTKVEIKR
B2: S4B3VH-h1+L1B2VK-mIgG2a (antibody, V domains shown)
VH: B1 VH with K67R, A68V, A76T
VL: DIQMTQSPSSLSASVGDRVTITCRASQNIHNYLDWYQQKPGKAPKLLIYSASSRETGVPSSFSGSGSGTDFTLTISSLQPEDFATYYCQQFQQIPWTFGQGTKVEIKR
B3: S4B3VH-h2+L1B2VK-mIgG2a (antibody, V domains shown)
VH: B1 VH
VL: B2 VL
B4: S4B3VH-h1+S4B3VK-h1-mIgG2a (antibody, V domains shown)
VH: B1 VH with K67R, A68V, A76T
VL: DIVMTQSPDSLAVSLGERATINCKASQNVGTNVAWYQQKPGQPPKALIYSASYRYSGVPDRFSGSGSGTDFTLTISSLQAEDVAVYFCQQYNSYPLTFGQGTKLEIKR
B5: S4B3VH-h2+S4B3VK-h1-mIgG2a (antibody, V domains shown)
VH: B1 VH
VL: B4 VL
B6: S4B3VH-h1+L1C9VK-mIgG2a (antibody, V domains shown)
VH: B1 VH with K67R, A68V, A76T
VL: B1 VL

Molecular target: Cov-S-His (SARS-CoV-2)
Assay: SPR, Biacore T200, antibody captured by anti-mouse Fc, Cov-S-His as analyte

| Binder | Kd [nM] |
| --- | --- |
| B1 | 5.76 |
| B2 | 2.86 |
| B3 | 3.04 |
| B4 | 14.5 |
| B5 | 23.9 |
| B6 | 5 |
